Experimental data: US20080181891A1 (Pfizer, published 2008)

Key:
mouse IGF-IR = biological target: T1, mouse IGF-IR (mouse, UniProt Q60751 31-1373); experiment: cells treated with antibody, IGF-I stimulation, immunoprecipitation of IGF-IR and Western blot
T1 construct: whole, on cells
Description: To perform immunoprecipitation experiments, cells were plated in DMEM high glucose media supplemented with L-glutamine (0.29 mg/ml), 10% heat-inactivated FBS, and 500 μg/ml each of geneticin, penicillin and streptomycin to 50% confluence in T25 flasks. 100 μl of an antibody of the invention in Hank's buffered saline solution (HBSS; Gibco BRL) at a concentration of 1 μg/ml was added. The plates were incubated for 30 minutes at 37° C. in an incubator and then stimulated cells with IGF-I at 100 ng/ml for 10 minutes at room temperature. The cells were lysed in RIPA buffer (Harlow and Lane, supra) and immunoprecipitated the IGF-IR with 2 μg of pan-specific SC-713 anti-IGF-IR antibody (Santa Cruz) plus protein A agarose beads for 1 hour at 4° C. The beads were pelleted and washed three times with PBS/T (PBS+0.1% Tween-20) and then boiled in 40 μl Laemmli buffer containing 5% ME.
The samples prepared as described above were then analyzed by Western blot. 12 μl of each sample were loaded per lane on 4-10% gradient Novex™ gels run with 1×MES buffer (Novex™). Gels were run at 150V for 1 hour or at 200V for approximately 30 minutes. The gel was transferred to a membrane in Novex™ transfer buffer with 10% methanol either overnight at 100 mA or for 1-1.5 hours at 250 mA. […]

[1] = biological target: T2, human insulin-like growth factor I receptor (IGF-IR) (human, UniProt P08069 31-1367); experiment: competition with [125I]-IGF-I for binding to IGF-IR-transfected NIH-3T3 cells, scintillation counting
T2 construct: whole, on cells; also called IGF-1R; human IGF-IR
Description: […] experiments were performed to quantitate the ability of the antibody of the invention to inhibit IGF-I binding to IGF-IR in a cell-based assay. IGF-IR-transfected NIH-3T3 cells (5×10⁴/ml) were plated in 100 μl of DMEM high glucose media supplemented with L-glutamine (0.29 mg/ml), 10% heat-inactivated FBS, and 500 μg/ml each of geneticin, penicillin and streptomycin in 96-well U-bottom plates. The plates were incubated at 37° C., 5% CO₂ overnight to allow cells to attach. The media was decanted from the plates and replaced with 100 μl fresh media per well. For testing, the antibody was diluted in assay media (DMEM high glucose media supplemented with L-glutamine, 10% heat-inactivated FBS, 200 μg/ml BSA and 500 μg/ml each of geneticin, penicillin and streptomycin) to the desired final concentration. All samples were performed in triplicate. The plates were incubated at 37° C. for ten minutes. The [¹²⁵I]-IGF-I was diluted to a concentration of 1 μCi/ml in assay media and added 50 μl per well of the plate. As a control for background radioactivity, cold IGF-I was added to a final concentration of 100 ng/ml. […] The samples were transferred to a scintillation plate, 150 μl OptiPhase Supermix was added and the signal was read using a Wallace MicroBeta counter. […]

[2] = biological target: T2, human insulin-like growth factor I …; experiment: cell-based or functional assay
cynomolgus monkey IGF-IR = biological target: T3, cynomolgus monkey IGF-IR (cynomolgus monkey, UniProt G7P9I7 31-1343); experiment: flow cytometry, biotinylated antibody on cynomolgus tissue culture cells, half maximal binding
T3 construct: whole, on cells; also called IGF-IR on cynomolgus tissue culture cells
Description: (§1) FACS analysis was performed to determine the affinity of the antibody of the invention for IGF-IR from other animals, particularly the old world monkeys described above. Aliquots of human and monkey cells (cynomolgus) (5×10⁵) were incubated for 1 hour on ice with increasing concentrations of biotinylated anti-IGF-IR antibodies of the invention. The samples were incubated for 30 minutes on ice with streptavidin-conjugated RPE (phycoerythrin). Binding was measured by flow cytometry and analyzed with the histograms of fluorescence intensity (FI2-H) versus cell number (Counts) using CellQuest software. Binding (Kd) was calculated for each antibody from graphs of mean fluorescence intensity versus antibody concentration. In most experiments, binding was measured in cultured human MCF-7 cells and cynomolgus tissue culture cells. Depletion of the antibody was controlled by measuring binding over a range of cell concentrations.

[3] = biological target: T2, human insulin-like growth factor I …; experiment: flow cytometry, biotinylated antibody on human cells (MCF-7), half maximal binding
Description: as §1

T2 sequence (P08069 31-1367): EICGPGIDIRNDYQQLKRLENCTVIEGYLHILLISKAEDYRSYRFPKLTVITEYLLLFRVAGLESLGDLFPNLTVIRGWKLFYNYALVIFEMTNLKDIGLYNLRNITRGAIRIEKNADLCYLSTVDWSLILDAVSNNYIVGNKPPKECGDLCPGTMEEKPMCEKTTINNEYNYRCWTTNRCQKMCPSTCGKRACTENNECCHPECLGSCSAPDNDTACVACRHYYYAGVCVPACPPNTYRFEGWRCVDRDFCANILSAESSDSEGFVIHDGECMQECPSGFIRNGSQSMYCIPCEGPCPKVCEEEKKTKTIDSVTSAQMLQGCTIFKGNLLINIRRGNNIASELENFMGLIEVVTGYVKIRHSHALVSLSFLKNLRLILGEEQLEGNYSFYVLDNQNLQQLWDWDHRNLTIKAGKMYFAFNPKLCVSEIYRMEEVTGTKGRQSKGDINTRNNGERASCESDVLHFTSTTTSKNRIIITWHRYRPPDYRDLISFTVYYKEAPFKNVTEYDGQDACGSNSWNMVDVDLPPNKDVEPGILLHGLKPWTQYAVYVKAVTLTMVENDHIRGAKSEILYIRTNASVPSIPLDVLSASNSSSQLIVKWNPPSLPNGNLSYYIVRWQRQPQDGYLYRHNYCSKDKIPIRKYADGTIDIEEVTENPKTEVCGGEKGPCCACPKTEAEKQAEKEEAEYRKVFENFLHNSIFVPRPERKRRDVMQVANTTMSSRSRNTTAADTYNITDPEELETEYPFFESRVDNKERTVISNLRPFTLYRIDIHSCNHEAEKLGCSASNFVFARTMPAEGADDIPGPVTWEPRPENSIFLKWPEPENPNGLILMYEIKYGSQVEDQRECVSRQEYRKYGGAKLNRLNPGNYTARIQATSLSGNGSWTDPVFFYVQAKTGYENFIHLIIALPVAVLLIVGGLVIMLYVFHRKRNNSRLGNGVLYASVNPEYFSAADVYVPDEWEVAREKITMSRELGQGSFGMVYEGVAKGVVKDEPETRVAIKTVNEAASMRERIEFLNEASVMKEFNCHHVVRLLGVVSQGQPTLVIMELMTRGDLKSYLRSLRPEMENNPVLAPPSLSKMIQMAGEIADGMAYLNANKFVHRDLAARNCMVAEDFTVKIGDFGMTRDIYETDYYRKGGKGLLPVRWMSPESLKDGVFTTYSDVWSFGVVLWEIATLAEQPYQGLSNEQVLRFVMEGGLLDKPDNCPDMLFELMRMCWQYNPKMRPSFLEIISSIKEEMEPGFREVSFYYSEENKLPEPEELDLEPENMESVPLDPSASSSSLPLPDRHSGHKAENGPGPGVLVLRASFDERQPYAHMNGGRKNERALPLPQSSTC
T1 sequence (Q60751 31-1373): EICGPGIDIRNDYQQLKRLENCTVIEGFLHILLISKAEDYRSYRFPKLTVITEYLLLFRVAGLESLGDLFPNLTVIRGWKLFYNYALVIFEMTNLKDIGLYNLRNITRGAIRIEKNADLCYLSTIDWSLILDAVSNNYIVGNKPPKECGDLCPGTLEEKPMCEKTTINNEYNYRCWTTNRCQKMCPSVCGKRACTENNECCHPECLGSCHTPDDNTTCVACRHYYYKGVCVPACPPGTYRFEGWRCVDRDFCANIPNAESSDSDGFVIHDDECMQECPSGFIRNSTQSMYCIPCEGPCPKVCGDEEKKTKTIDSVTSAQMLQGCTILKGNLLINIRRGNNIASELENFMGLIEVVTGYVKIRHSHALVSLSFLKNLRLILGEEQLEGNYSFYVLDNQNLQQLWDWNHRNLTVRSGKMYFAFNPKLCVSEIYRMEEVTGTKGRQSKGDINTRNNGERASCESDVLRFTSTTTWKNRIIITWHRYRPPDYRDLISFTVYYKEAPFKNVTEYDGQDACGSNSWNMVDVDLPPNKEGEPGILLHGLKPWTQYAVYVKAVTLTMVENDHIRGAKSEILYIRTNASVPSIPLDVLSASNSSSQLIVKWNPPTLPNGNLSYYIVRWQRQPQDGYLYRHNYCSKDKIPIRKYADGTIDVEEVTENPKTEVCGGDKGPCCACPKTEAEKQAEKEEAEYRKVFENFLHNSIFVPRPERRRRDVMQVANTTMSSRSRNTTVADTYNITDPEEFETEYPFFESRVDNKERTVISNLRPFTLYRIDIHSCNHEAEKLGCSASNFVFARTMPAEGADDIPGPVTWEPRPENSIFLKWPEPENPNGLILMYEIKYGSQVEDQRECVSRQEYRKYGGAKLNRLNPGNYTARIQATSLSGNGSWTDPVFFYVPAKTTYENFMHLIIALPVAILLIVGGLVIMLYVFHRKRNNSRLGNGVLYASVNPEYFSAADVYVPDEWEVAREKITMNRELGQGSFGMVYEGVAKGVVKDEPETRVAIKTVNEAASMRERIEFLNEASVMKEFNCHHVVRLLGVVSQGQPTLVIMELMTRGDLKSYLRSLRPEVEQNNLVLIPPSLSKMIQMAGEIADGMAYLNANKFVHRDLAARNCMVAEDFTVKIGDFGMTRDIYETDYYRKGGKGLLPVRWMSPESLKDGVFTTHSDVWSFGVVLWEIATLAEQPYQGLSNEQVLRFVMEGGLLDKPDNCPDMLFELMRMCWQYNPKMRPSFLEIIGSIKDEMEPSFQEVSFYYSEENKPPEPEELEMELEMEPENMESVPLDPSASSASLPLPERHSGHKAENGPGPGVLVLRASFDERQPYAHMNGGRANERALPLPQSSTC
T3 sequence (G7P9I7 entry or part of it): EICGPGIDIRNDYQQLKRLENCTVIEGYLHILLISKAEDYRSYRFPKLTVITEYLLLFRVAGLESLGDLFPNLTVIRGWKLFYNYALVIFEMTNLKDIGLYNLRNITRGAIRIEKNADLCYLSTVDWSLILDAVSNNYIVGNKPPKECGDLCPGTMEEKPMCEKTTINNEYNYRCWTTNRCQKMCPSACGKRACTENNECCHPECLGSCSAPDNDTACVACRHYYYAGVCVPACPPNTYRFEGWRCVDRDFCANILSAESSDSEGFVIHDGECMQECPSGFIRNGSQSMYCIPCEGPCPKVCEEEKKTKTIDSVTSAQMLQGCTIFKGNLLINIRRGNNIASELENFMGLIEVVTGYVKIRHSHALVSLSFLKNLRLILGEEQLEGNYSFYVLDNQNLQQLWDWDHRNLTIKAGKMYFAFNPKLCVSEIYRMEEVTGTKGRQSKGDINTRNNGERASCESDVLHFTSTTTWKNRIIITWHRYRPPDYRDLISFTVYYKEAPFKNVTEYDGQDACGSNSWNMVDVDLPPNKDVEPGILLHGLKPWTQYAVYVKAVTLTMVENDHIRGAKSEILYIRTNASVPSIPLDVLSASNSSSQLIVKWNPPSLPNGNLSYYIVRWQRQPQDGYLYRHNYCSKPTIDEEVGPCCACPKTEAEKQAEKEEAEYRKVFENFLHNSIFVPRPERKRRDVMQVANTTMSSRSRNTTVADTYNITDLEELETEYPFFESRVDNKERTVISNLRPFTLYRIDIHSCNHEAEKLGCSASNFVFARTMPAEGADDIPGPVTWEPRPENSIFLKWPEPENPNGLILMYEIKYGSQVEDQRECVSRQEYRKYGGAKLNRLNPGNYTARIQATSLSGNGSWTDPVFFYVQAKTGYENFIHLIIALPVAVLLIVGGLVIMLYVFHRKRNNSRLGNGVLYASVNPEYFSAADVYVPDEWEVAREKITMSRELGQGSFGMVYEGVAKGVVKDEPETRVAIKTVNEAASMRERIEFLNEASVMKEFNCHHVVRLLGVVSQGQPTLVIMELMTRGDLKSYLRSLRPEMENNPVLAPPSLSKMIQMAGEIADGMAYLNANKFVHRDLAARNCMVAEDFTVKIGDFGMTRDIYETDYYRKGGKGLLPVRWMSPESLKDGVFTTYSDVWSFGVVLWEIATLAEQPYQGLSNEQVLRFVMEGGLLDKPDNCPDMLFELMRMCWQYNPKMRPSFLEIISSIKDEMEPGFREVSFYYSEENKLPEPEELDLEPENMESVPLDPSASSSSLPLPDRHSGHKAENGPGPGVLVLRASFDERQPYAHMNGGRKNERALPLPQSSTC

B1: anti-IGF-IR antibody 2.12.1fx (antibody, human IgG2, kappa, V domains shown)
VH: QVQLVESGGGLVKPGGSLRLSCAASGFTFSDYYMSWIRQAPGKGLEWVSYISSSGSTRDYADSVKGRFTISRDNAKNSLYLQMNSLRAEDTAVYYCARDGVETTFYYYYYGMDVWGQGTTVTVSS
VL: DIQMTQSPSSLSASVGDRVTITCRASQDIRRDLGWYQQKPGKAPKRLIYAASRLQSGVPSRFSGSGSGTEFTLTISSLQPEDFATYYCLQHNNYPRTFGQGTKVEIKR
notes: also called the antibody of the invention; the antibody of this invention
binding result (mouse IGF-IR): no binding (tested: 1 µg/ml)
IC50 [1]: 0.4 µg/mL
IC50 of inhibition of IGF-I-induced tyrosine phosphorylation of IGF-IR (ELISA on lysates of IGF-IR-transfected NIH-3T3 cells) [2]: 0.42 µg/mL
Kd (cynomolgus monkey IGF-IR): 0.1 µg/mL
Kd [3]: 0.1 µg/mL
